Laboratory results taken from paper PMC4457421.

Target: Bacteriorhodopsin from Halobium salinarum expressed in E. coli (Halobium salinarum) (UniProt P02945)
Assay: crystal structure; in meso nanovolume crystallisation in monooleoyl-based lipid mesophase, protein 20 mg/ml, 1.5M Na/K-Pi pH 5.6, 22°C; space group C2, three monomers in the asymmetric unit; 1.9 Å

## Bacteriorhodopsin from Halobium salinarum expressed in E. coli (from UniProt P02945 14-262) (natural protein)
  stoichiometry N: 3
